Target: soluble HA of A/Aichi/2/68 (H3N2) modified at the C-terminus with the GCN4pII trimerization repeat (influenza A virus A/Aichi/2/68 (H3N2) | Saccharomyces cerevisiae) (UniProt P03437)
Assay: cross-linking

soluble HA of A/Aichi/2/68 (H3N2) modified at the C-terminus with the GCN4pII trimerization repeat (from UniProt P03437 17-528)
stoichiometry N: 3

— paper PMC2931692
